Laboratory results: the supplement of paper PMC10567573

B1: TAF7L (parent)
chain: PDVENEVKRLLRSDAEAVSTRWEV
B2: CCND2 (parent)
chain: YFKCVQKDIQPYMRRMVATWMLEV

Variants of: B1
Assay: protein stability index of a GFP-peptide fusion (GPS, HEK-293T) (PSI 1-6); higher = more stable
Settings: c terminus: a fixed tail appended
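Further: lentivirally expressed fusions sorted by FACS into six bins by GFP to DsRed ratio, PSI derived from sequencing read proportions per bin multiplied by bin number.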

In order of falling protein stability index:
1. PDVENEVKRLLRSDAEAVSTRDEV  5.66
2. PDVENEVKRLLRSDAEAVSTREEV  5.52
3. PDVENEVKRLLRSDAEAVSTRNEV  5.45
4. PDVENEVKRLLRSDAEAVSTRWEN  5.33
5. PDVENEVKRLLRSDAEAVSTRGEV  5.31
6. PDVENEVKRLLRSDAEAVSTRAEV  5.26
7. PDVENEVKRLLRSDAEAVSTRQEV  5.11
8. PDVENEVKRLLRSDAEAVSTRTEV  5.07
9. PDVENEVKRLLRSDAEAVSTNWEV  4.93
10. PDVENEVKRLLRSDAEAVSTRREV  4.92
11. PDVENEVKRLLRSDAEAVSTRPEV  4.92
12. PDVENEVKRLLRSDAEAVSTRLEV  4.8
13. PDVENEVKRLLRSDAEAVSTRHEV  4.79
14. PDVENEVKRLLRSDAEAVSTRWEP  4.63
15. PDVENEVKRLLRSDAEAVSTRWEG  4.61
16. PDVENEVKRLLRSDAEAVSTRWEA  4.61
17. PDVENEVKRLLRSDAEAVSTRIEV  4.49
18. PDVENEVKRLLRSDAEAVSTRWER  4.36
19. PDVENEVKRLLRSDAEAVSTGWEV  4.36
20. PDVENEVKRLLRSDAEAVSTRWET  4.31
21. PDVENEVKRLLRSDAEAVSTRWEM  4.29
22. PDVENEVKRLLRSDAEAVSTRWED  4.24
23. PDVENEVKRLLRSDAEAVSTRVEV  4.21
24. PDVENEVKRLLRSDAEAVSTQWEV  4.18
25. PDVENEVKRLLRSDAEAVSTRWEC  4.15
26. PDVENEVKRLLRSDAEAVSTRWEE  4.13
27. PDVENEVKRLLRSDAEAVSTPWEV  3.87
28. PDVENEVKRLLRSDAEAVSTRWGV  3.86
29. PDVENEVKRLLRSDAEAVSTRFEV  3.83
30. PDVENEVKRLLRSDAEAVSTKWEV  3.76
31. PDVENEVKRLLRSDAEAVSTRCEV  3.63
32. PDVENEVKRLLRSDAEAVSTMWEV  3.61
33. PDVENEVKRLLRSDAEAVSTRWKV  3.59
34. PDVENEVKRLLRSDAEAVSTHWEV  3.58
35. PDVENEVKRLLRSDAEAVSTRWHV  3.56
36. PDVENEVKRLLRSDAEAVSTRWAV  3.52
37. PDVENEVKRLLRSDAEAVSTRWEY  3.51
38. PDVENEVKRLLRSDAEAVSTRWPV  3.2
39. PDVENEVKRLLRSDAEAVSTVWEV  3.2
40. PDVENEVKRLLRSDAEAVSTTWEV  3.06
41. PDVENEVKRLLRSDAEAVSTRWTV  2.96
42. PDVENEVKRLLRSDAEAVSTIWEV  2.96
43. PDVENEVKRLLRSDAEAVSTSWEV  2.95
44. PDVENEVKRLLRSDAEAVSTLWEV  2.86
45. PDVENEVKRLLRSDAEAVSTRWCV  2.83
46. PDVENEVKRLLRSDAEAVSTRWRV  2.75
47. PDVENEVKRLLRSDAEAVSTRWQV  2.68
48. PDVENEVKRLLRSDAEAVSTRWIV  2.59
49. PDVENEVKRLLRSDAEAVSTRWYV  2.56
50. PDVENEVKRLLRSDAEAVSTRWSV  2.53
51. PDVENEVKRLLRSDAEAVSTFWEV  2.53
52. PDVENEVKRLLRSDAEAVSTYWEV  2.51
53. PDVENEVKRLLRSDAEAVSTRWMV  2.4
54. PDVENEVKRLLRSDAEAVSTRWLV  2.29

Variants of: B2
Assay: as above
Settings: c terminus: a fixed tail appended

In order of rising protein stability index:
1. YFKCVQKDVQPYMRRMVATWMLEV  1.06
2. YFKCVQKDIQPYMRRMVAPWMLEV  1.41
3. YFKCVQKDIQPYMRRMVCTWMLEV  1.44
4. YFKCVQKDIQPYMRRMVATWMHEV  1.59
5. YFKCVQKDIQPYMRRMVATDMLEV  1.63
6. YFKCVQKDIQPYMRRMVATWMNEV  1.65
7. YFKCVQKDIQPYMQRMVATWMLEV  1.73
8. YFKCVQKDIQPYMRRMVATWMEEV  1.74
9. YFKCVQKDIQPYMRRMVATWMDEV  1.89
10. YFKCVIKDIQPYMRRMVATWMLEV  1.91
11. YFKCVQKDIQPYMRRMVATWMLEH  1.94
12. YFKCVQKDIQPYMRRMVATGMLEV  1.95
13. YFKCVQKDIQPYMRRMVATWMQEV  1.96
14. YFKCVQKDIQPYMRRMVADWMLEV  1.97
15. YFKCVQKDIFPYMRRMVATWMLEV  1.99
16. YFKCVQKDIQPYMRRMVATWMYEV  2
17. YFKCVQKWIQPYMRRMVATWMLEV  2.03
18. YFKCVFKDIQPYMRRMVATWMLEV  2.07
19. YFKCVQKDIQPYMRRMVATWHLEV  2.08
20. YFKCVQKDIQPYMRRDVATWMLEV  2.09
21. YFKCVQKDIQPYMRRMNATWMLEV  2.15
22. YVKCVQKDIQPYMRRMVATWMLEV  2.15
23. YFKCVQKDIQPYMRRMVATRMLEV  2.17
24. YFKCVQKDIQPYMRRMVHTWMLEV  2.17
25. YFKCVQKHIQPYMRRMVATWMLEV  2.21
26. YFKCHQKDIQPYMRRMVATWMLEV  2.23
27. YFKCVQKDIQPYMRRMVATWPLEV  2.24
28. YFKCVQKDIQPYMERMVATWMLEV  2.24
29. YFKCVQKDIQPYMRRMVATWMCEV  2.25
30. YFKCVQKDIQPYMRRMVATWMLHV  2.28
31. YFKCVQKDIQPYMGRMVATWMLEV  2.28
32. FFKCVQKDIQPYMRRMVATWMLEV  2.3
33. YFKCVQKDIQPYMRRMVATWMLKV  2.31
34. YFKCVQKDIEPYMRRMVATWMLEV  2.32
35. YRKCVQKDIQPYMRRMVATWMLEV  2.33
36. YFKCVQKDIQPYMRRMVATWMKEV  2.34
37. YFKCVQKDIQPYMRGMVATWMLEV  2.35
38. YFKCVSKDIQPYMRRMVATWMLEV  2.37
39. YFKCQQKDIQPYMRRMVATWMLEV  2.37
40. YFKCVQKEIQPYMRRMVATWMLEV  2.37
41. TFKCVQKDIQPYMRRMVATWMLEV  2.37
42. YFKCVQKDIQPYMRRYVATWMLEV  2.41
43. YFKCDQKDIQPYMRRMVATWMLEV  2.41
44. YFKCVQKDIQPWMRRMVATWMLEV  2.43
45. YFKCVQKDIQPYMRRMPATWMLEV  2.44
46. YFKCVQKDIQPYMRRMFATWMLEV  2.44
47. YFWCVQKDIQPYMRRMVATWMLEV  2.44
48. YFKCVQKDIQPYMRREVATWMLEV  2.45
49. YFKCVPKDIQPYMRRMVATWMLEV  2.49
50. YFKCVQKDIQSYMRRMVATWMLEV  2.5
51. YFKCVQKDIVPYMRRMVATWMLEV  2.5
52. YFKCVQKDIQPYMRRMVATIMLEV  2.57
53. YFKCVQKDIQPYMRRSVATWMLEV  2.58
54. YFKCVQKDIQPYMRRMVATWILEV  2.58
55. YFKCVQKDIQPYMRRMVATPMLEV  2.58
56. YFKCVQKIIQPYMRRMVATWMLEV  2.58
57. DFKCVQKDIQPYMRRMVATWMLEV  2.58
58. YFKCVQKDQQPYMRRMVATWMLEV  2.61
59. YFKCVQKDIQPYMRRMVATWMLCV  2.61
60. YFKCVQKDIQPYMRRMVATQMLEV  2.61
61. YFKCVQKDIQPYMRRMVATWMIEV  2.61
62. YFACVQKDIQPYMRRMVATWMLEV  2.64
63. YFKCVQKDILPYMRRMVATWMLEV  2.64
64. YFKCVQKDIQPYQRRMVATWMLEV  2.65
65. YNKCVQKDIQPYMRRMVATWMLEV  2.66
66. YFKCVQKDIQPYMRRMVATWMLEL  2.68
67. YFKCVQKDDQPYMRRMVATWMLEV  2.71
68. YFLCVQKDIQPYMRRMVATWMLEV  2.71
69. YFKCVQKDITPYMRRMVATWMLEV  2.71
70. YFKCVQKDIQPYMRRMVATWMSEV  2.72
71. YFKCVQKDIQYYMRRMVATWMLEV  2.74
72. YFKCVQKDIQPYMRHMVATWMLEV  2.75
73. YFKCVQKDIQPYMRIMVATWMLEV  2.75
74. YFKCVQKDIDPYMRRMVATWMLEV  2.77
75. YFKCVQKDIQVYMRRMVATWMLEV  2.82
76. YFKCVQKDIQPYMRRMVASWMLEV  2.83
77. YLKCVQKDIQPYMRRMVATWMLEV  2.85
78. SFKCVQKDIQPYMRRMVATWMLEV  2.85
79. YFKCVQKCIQPYMRRMVATWMLEV  2.87
80. YFKCVQKDIQPYMRRMVATWMLTV  2.88
81. YFKCVQKDIQPYMRRMVAWWMLEV  2.88
82. YFKCVQKDIQPYMRRMVATWMLMV  2.9
83. YFKCVQKDIQIYMRRMVATWMLEV  2.9
84. YFKCVQKDIQPYMRRMVATWMLEG  2.9
85. YFKCWQKDIQPYMRRMVATWMLEV  2.9
86. YIKCVQKDIQPYMRRMVATWMLEV  2.9
87. YFKCVQKDIQPYMRRQVATWMLEV  2.91
88. YFKCVQKDIQPYHRRMVATWMLEV  2.92
89. YKKCVQKDIQPYMRRMVATWMLEV  2.95
90. YFMCVQKDIQPYMRRMVATWMLEV  2.96
91. YFKCVQKDIQPYTRRMVATWMLEV  2.96
92. YFKCVQKDIQPYMRRMVPTWMLEV  2.96
93. YFKCVQGDIQPYMRRMVATWMLEV  2.97
94. YFKCVQKDIQPYMRRMVWTWMLEV  2.98
95. YFKCVQKDIQPYMRRMVATWMTEV  3
96. YFKCVQKDIQPYMRVMVATWMLEV  3.01
97. YFKCVQKDIQPYMRRMVATWMLIV  3.03
98. YFKCVQVDIQPYMRRMVATWMLEV  3.05
99. YFKCVQKDIQPYMRRLVATWMLEV  3.06
100. YFKCVQKDIQPYMRCMVATWMLEV  3.12
101. YFKCVQKPIQPYMRRMVATWMLEV  3.13
102. YFKCPQKDIQPYMRRMVATWMLEV  3.14
103. YFKCVKKDIQPYMRRMVATWMLEV  3.15
104. YFKCVQKDIQPLMRRMVATWMLEV  3.19
105. YFKCVQKDIQPQMRRMVATWMLEV  3.19
106. YFKWVQKDIQPYMRRMVATWMLEV  3.23
107. YFKCVQKDIQPYMRRMVATWMLEI  3.24
108. YFKCVQKDGQPYMRRMVATWMLEV  3.25
109. YFKCVQKDIQPYMRRFVATWMLEV  3.28
110. YFECVQKDIQPYMRRMVATWMLEV  3.31
111. YFKCVQKDIQPYMRRIVATWMLEV  3.33
112. YFKCVQIDIQPYMRRMVATWMLEV  3.33
113. VFKCVQKDIQPYMRRMVATWMLEV  3.34
114. YFKCVQKDTQPYMRRMVATWMLEV  3.39
115. YFKCVQKDIQPYMRRMVATVMLEV  3.41
116. YFKCVQKDIQPYMRDMVATWMLEV  3.42
117. YFKCVCKDIQPYMRRMVATWMLEV  3.44
118. YFKCVQKDIQPYMRRMVQTWMLEV  3.45
119. YFDCVQKDIQPYMRRMVATWMLEV  3.48
120. YFKCVQKYIQPYMRRMVATWMLEV  3.53
121. YFKCVQKDIQPYKRRMVATWMLEV  3.64
122. YFKCVQKDIQMYMRRMVATWMLEV  3.69
123. YFKCVQKDIQPYMRPMVATWMLEV  3.69
124. HFKCVQKDIQPYMRRMVATWMLEV  3.71
125. YFKCVQKDIPPYMRRMVATWMLEV  3.81
126. YGKCVQKDIQPYMRRMVATWMLEV  3.84
127. YFKCVQKDIQPYMRRMVATWCLEV  3.87
128. YFKCVQKDIQPYMRRMWATWMLEV  4.01
129. YEKCVQKDIQPYMRRMVATWMLEV  4.07
130. YFKCVQKDIQPYMRRMVRTWMLEV  4.17
131. YFKCVQKDIQPYMRRMVYTWMLEV  4.28
132. YFKFVQKDIQPYMRRMVATWMLEV  4.64
133. YFKCVQEDIQPYMRRMVATWMLEV  4.8
134. YFKCVQKDIQPMMRRMVATWMLEV  5.01
